For one substance, localisation_or_trafficking results are on record in paper PMC7911445.

Where two headings read alike, the source gives them in different places.

As to “β-catenin: 1-mM LiCl (GSK3β inhibitor) added to TMA/BL-treated cultures”, the localisation_or_trafficking result reads like this: (phosphorylation at S33) “increases”; (phosphorylation at S37) “increases”.
